According to patent publication US20050260683A1, “Methods for diagnosing and treating pre-term labor” (University of Hawaii, priority 2002, published 2005):
Entries after “also recorded” stand apart in the source; their conditions may differ.

Key:
Assay type in all cases: cell-based, human
[1] = system: IL-6 gene expression in amniotic epithelial (WISH) cells; test: rhPBEF treatment of WISH cells, IL-6 gene expression by Northern analysis; settings: for increase in IL-6 gene expression: 4 h, vs control
Experimental: (§1) Total RNA was extracted (see Chomzynski and Sacchi, supra) and MRNA prepared as previously described (see Aviv and Leder, supra). Samples of MRNA (10-20 μg) were electrophoresed, and the RNA transferred to a nylon membrane (Magna Graph, MSI, Westborough, Mass.) as previously described (see Ognjanovic et al., supra). The cDNA probes were labeled using the Random Primed DNA labeling kit and following the manufacturer's instructions (Invitrogen, Carlsbad, Calif.). The filters were hybridized at 68° C. for 1 h using Express Hyb solution (Clontech, Palo Alto, Calif., USA). A final wash stringency of 0.1×SSC, 0.1% SDS was performed at 50° C. Filters were deprobed in 0.5% SDS for 10 min at 100° C. and re-hybridized sequentially with cDNA probes to PBEF, IL-6 and IL-8 and finally with a human glyceraldehyde-3 phosphate dehydrogenase (G3PDH) cDNA probe (Clontech), as an internal standard. The Northern blot was quantitated with a Phospholmager (Amersham Pharmacia Biotech, Piscataway, N.Y.), using the G3PDH value for each sample to standardize sample loading. Results were expressed as a ratio to G3PDH. Statistical analysis was performed using the Tukey-Kramer multiple comparison test.
(§2) The amnion-like epithelial (WISH) cells were obtained from American Type Culture Collection (ATCC# CCL-25) (ATCC, Manassas, Va.). WISH cells were cultured in Dulbecco's Modified Eagle Medium:Ham F-12 (DMEM:F12) (1:1) supplemented with 10% fetal bovine serum (FBS) (Life Technologies, Grand Island, N.Y.), penicillin (50 U/ml)-streptomycin (50 μg/ml) and incubated at 37° C. in 5% CO2/95% air. After reaching confluency, the cells were trypsinized and plated into 6-well culture dishes at a density of 1×10^5 cells in 4 ml media. After 48 h or when the cells reached 80% confluency, the growth medium was replaced with minimal media (0.5% FBS and 0.2% lactalbumin in DMEM:F12) and incubated for 12 h. Treatment of the cells began with addition of rhPBEF prepared in minimal media. The concentration of rhPBEF was determined using the BioRad protein assay and 1, 10 and 100 ng/ml was added to the cells for 4 and 24 h. Treatment was carried out in triplicate and each experiment was performed at least three times on different occasions. Controls received minimal media containing 0.5% bovine serum albumin (15 μl) in phosphate buffer saline (PBS). […]
In addition to fetal membrane explants, the amniotic epithelial cell line, WISH cells, were also used to study the effects of PBEF on the expression of IL-6 and IL-8. The expression of the IL-6 and IL-8 genes were quantitated by Northern blotting using total RNA isolated from the cells and calculated as the degree of upregulation (fold) compared to the respective control at each time (see FIGS. 4A-4C). […]

[2] = system: key mediators of labor in fetal membrane explants; test: rhPBEF treatment of fetal membrane explants, gene chip analysis (Affymetrix); settings: rhPBEF 100 ng/ml, 4 hours
Experimental: Fetal membranes from three patients were cut into several 3×3 cm explants. One explant was used to check for infection. Another explant was treated with 100 ng/ml rhPBEF in minimal media for 4 hours, an adjacent explant was used as a control and was incubated in minimal media only for the same period. At the end of this time, total RNA was extracted using the RNeasy Maxi kit (Qiagen Inc., Valencia, Calif.). These RNAs were run in pairs (explants treated and controls from each of the patients), were reverse-transcribed and the resulting cDNAs/cRNAs labeled with tracking fluorescent dyes and hybridized to DNA microchips (Affymetrix Inc.) containing 22,000 gene transcripts. The binding of the fluorescent fragments was proportional to the abundance of the gene in the original samples. Therefore changes in gene expression result in signal differences. […] The Affymetrix system has numerous controls built into the methodology in order to minimize false positive results.

[3] = system: IL-8 protein in WISH cell culture media; test: rhPBEF treatment of WISH cells, IL-8 protein in media by ELISA; settings: rhPBEF 10 ng/ml, 4 h
Experimental: as §2, with “h.” for “h. Treatment was carried out in triplicate and each experiment was performed at least three times on different occasions. Controls received minimal media containing 0.5% bovine serum albumin (15 μl) in phosphate buffer saline (PBS).”
The IL-8 enzyme-linked immunosorbent assay (ELISA) kit was purchased from R&D Systems (Minneapolis, Minn.) and used to determine the IL-8 protein concentration in the culture supernatants following the manufacturer's protocol. […] The basal levels of IL-6 protein in conditioned media of WISH cells were reported to be at the limit of sensitivity of ELISA (see Keelan et al., supra) and could not be considered reliable, therefore the levels of IL-6 protein were not measured.

[4] = system: IL-6 gene expression in fetal membrane explants; test: rhPBEF treatment of fetal membrane explants, IL-6 gene expression by Northern analysis; settings: rhPBEF 100 ng/ml, 4 h, vs control
Excerpt: (§3) elective term Cesarean section without labor (n=7). For the Northern analysis of IL-6 and IL-8 gene expression after rhPBEF treatment, fetal membranes from elective term Cesarean sections before labor (37-40 weeks gestation, n=6) were collected and cut into 3×3 cm explants. None of the preterm or term patients or tissues had any clinical or histological signs of chorioamnionitis. The placentas and membranes were examined by a pathologist for histological evidence of infection using the criteria of Naeye (see Naeye R I. “Disorders of the placenta, fetus and neonate: diagnosis and clinical significance.” St Louis: C U Mosby; 1992. p.258) and all tissues with any sign of infection were excluded from this study.
Total RNA was extracted (see Chomzynski and Sacchi, supra) and MRNA prepared as previously described (see Aviv and Leder, supra). Samples of MRNA (10-20 μg) were electrophoresed, and the RNA transferred to a nylon membrane (Magna Graph, MSI, Westborough, Mass.) as previously described (see Ognjanovic et al., supra). The cDNA probes were labeled using the Random Primed DNA labeling kit and following the manufacturer's instructions (Invitrogen, Carlsbad, Calif.). […] The Northern blot was quantitated with a Phospholmager (Amersham Pharmacia Biotech, Piscataway, N.Y.), using the G3PDH value for each sample to standardize sample loading. Results were expressed as a ratio to G3PDH. […]

[5] = system: IL-8 gene expression in amniotic epithelial (WISH) cells; test: rhPBEF treatment of WISH cells, IL-8 gene expression by Northern analysis; settings: rhPBEF 100 ng/ml, 4 h
Experimental: as §1, with “Statistical analysis was performed using the Tukey-Kramer multiple comparison test.” left out
The amnion-like epithelial (WISH) cells were obtained from American Type Culture Collection (ATCC# CCL-25) (ATCC, Manassas, Va.). […] The concentration of rhPBEF was determined using the BioRad protein assay and 1, 10 and 100 ng/ml was added to the cells for 4 and 24 h. […]

[6] = system: IL-8 gene expression in fetal membrane explants; test: rhPBEF treatment of fetal membrane explants, IL-8 gene expression by Northern analysis; settings: rhPBEF 100 ng/ml, 4 h, vs control
Excerpt: as §3, §1
Each fetal membrane was cut into several 3×3 cm explants. […]

B1: rhPBEF: recombinant human pre-B cell colony-enhancing factor produced in a bacterial system using pTrcHis2 vector (protein)
chain: MNPAAEAEFNILLATDSYKVTHYKQYPPNTSKVYSYFECREKKTENSKLRKVKYEETVFYGLQYILNKYLKGKVVTKEKIQEAKDVYKEHFQDDVFNEKGWNYILEKYDGHLPIEIKAVPEGFVIPRGNVLFTVENTDPECYWLTNWIETILVQSWYPITVATNSREQKKILAKYLLETSGNLDGLEYKLHDFGYRGVSSQETAGIGASAHLVNFKGTDTVAGLALIKKYYGTKDPVPGYSVPAAEHSTITAWGKDHEKDAFEHIVTQFSSVPVSVVSDSYDIYNACEKIWGEDLRHLIVSRSTQAPLIIRPDSGNPLDTVLKVLEILGKKFPVTENSKGYKLLPPYLRVIQGDGVDINTLQEIVEGMKQKMWSIENIAFGSGGGLLQKLTRDLLNCSFKCSYVVTNGLGINVFKDPVADPNKRSKKGRLSLHRTPAGNFVTLEEGKGDLEEYGQDLLHTVFKNGKVTKSYSFDEIRKNAQLNIELEAAHH
Question: With B1 as the molecule, how does the “increase in IL-6 gene expression” value ([1]; rhPBEF 1 ng/ml) read?
Answer: 15%

Question: And the “increase in IL-6 gene expression” value ([1]; rhPBEF 10 ng/ml)?
Answer: 29%

Question: What about the “increase in IL-6 gene expression” value ([1]; rhPBEF 100 ng/ml) of the same molecule?
Answer: 44%

Question: What about the “IL-6 gene expression, dose dependence” value ([1]; rhPBEF 1, 10 and 100 ng/ml, 4h) of the same molecule?
Answer: dose-dependent increase

Question: What about the COX-2 gene expression [2] of the same molecule?
Answer: stimulates; also recorded: significantly upregulated

Question: What about the GRO-γ gene expression [2] of the same molecule?
Answer: significantly upregulated

Question: What about the IL-1β gene expression [2] of the same molecule?
Answer: stimulates; also recorded: significantly upregulated

Question: What about the IL-6 gene expression [2] of the same molecule?
Answer: stimulates; also recorded: significantly upregulated

Question: What about the MIP-1α gene expression [2] of the same molecule?
Answer: significantly upregulated

Question: And the MIP-1β gene expression [2]?
Answer: significantly upregulated

Question: And the TNF-α gene expression [2]?
Answer: stimulates; also recorded: significantly upregulated

Question: What about the “increase in secreted IL-8 (ELISA)” value [3] of the same molecule?
Answer: 15%

Question: And the “upregulation of IL-6 gene expression” value [4]?
Answer: 40%

Question: What about the “increase in IL-8 gene expression” value [5] of the same molecule?
Answer: absent

Question: And the “upregulation of IL-8 gene expression” value [6]?
Answer: 120%

Question: And the “upregulation of IL-8 gene expression” value ([6]; listed as PBEF)?
Answer: 120%

Question: And the “upregulation of IL-8 gene expression” value ([6]; listed as RhPBEF)?
Answer: significant (p<0.05) increase
